Target: T1, polypeptide complex 1 (PC-1)
T1 construct: also called Intact PC-1; uncleaved PC-1
Test: ELISA ('Cyno Albumin ELISA')

B1: cynomolgus monkey albumin (other)
chain: DTHKSEVAHRFKDLGEEHFKGLVLVAFSQYLQQCPFEEHVKLVNEVTEFAKTCVADESAENCDKSLHTLFGDKLCTVATLRETYGEMADCCAKQEPERNECFLQHKDDNPNLPPLVRPEVDVMCTAFHDNEATFLKKYLYEVARRHPYFYAPELLFFAARYKAAFAECCQAADKAACLLPKLDELRDEGKASSAKQRLKCASLQKFGDRAFKAWAVARLSQKFPKAEFAEVSKLVTDLTKVHTECCHGDLLECADDRADLAKYMCENQDSISSKLKECCDKPLLEKSHCLAEVENDEMPADLPSLAADYVESKDVCKNYAEAKDVFLGMFLYEYARRHPDYSVMLLLRLAKAYEATLEKCCAAADPHECYAKVFDEFQPLVEEPQNLVKQNCELFEQLGEYKFQNALLVRYTKKVPQVSTPTLVEVSRNLGKVGAKCCKLPEAKRMPCAEDYLSVVLNRLCVLHEKTPVSEKVTKCCTESLVNRRPCFSALELDEAYVPKAFNAETFTFHADMCTLSEKEKQVKKQTALVELVKHKPKATKEQLKGVMDNFAAFVEKCCKADDKEACFAEEGPKFVAASQAALA
notes: Antigen immobilized on the ELISA plate
B1: binds.

From patent US20240059790A1 (JANUX THERAPEUTICS, published 2024)
